According to patent US20230293704A1, “Compositions and Methods for Tendon Regeneration” (University of Rochester, priority 2022, published 2023):
No end group written: not given here. *: point of attachment. PSMA‑b‑PS = poly(styrene-alt-maleic anhydride)-b-poly(styrene) polymer; Alloc = C=CCOC(=O)*

B1: TBP-NPs prepared by carbodiimide tagging of pre-formed PSMA-b-PS nanoparticles with Alloc-protected-lysine TBP (peptide)
peptide: TPLSYLK(Alloc)GLVTVG
modifications: not fully specified; printed as TPLSYLKAllocGLVTVG; also: ['coupled to PSMA-b-PS nanoparticles by carbodiimide amide bond']
B2: TRAP binding peptide nanoparticles (TBP-NPs) prepared by anhydride ring-opening conjugation of Alloc-protected TBP to PSMA-b-PS polymer (peptide)
peptide: {PSMA‑b‑PS}-TPLSYLKGLVTVG-OH
modifications: not fully specified (residue 7); printed as TPLSYLKAllocGLVTVG; also: Lys7 Alloc-protected during conjugation, removal not given here

What was measured:
[1] = tested on: S100a4; conditions: Sack et al. 2011; cited from earlier work
[2] = target: T1, TRAP (Homo sapiens, UniProt P13686); test: In vitro binding assay of TBP-NPs and SCP-NPs to TRAP (fluorescamine readout); conditions: NPs exposed to TRAP in serial dilutions, incubation 2 hours; read-out: Binding Affinity (Kd)
T1 sequence (P13686 22-325): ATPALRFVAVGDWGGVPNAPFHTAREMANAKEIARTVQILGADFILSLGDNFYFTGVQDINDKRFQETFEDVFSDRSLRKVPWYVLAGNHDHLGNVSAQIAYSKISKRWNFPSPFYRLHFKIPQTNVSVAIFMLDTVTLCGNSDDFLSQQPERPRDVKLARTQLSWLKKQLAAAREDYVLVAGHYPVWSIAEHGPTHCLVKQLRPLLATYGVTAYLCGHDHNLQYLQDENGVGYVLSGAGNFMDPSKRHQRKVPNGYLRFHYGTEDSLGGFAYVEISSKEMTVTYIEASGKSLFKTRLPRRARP
Excerpt: (§1) Polymer-peptide conjugates were self-assembled into nanoparticles via solvent exchange from dimethylformamide (DMF) to water using a syringe pump. Dynamic light scattering (DLS) was used to characterize the size and zeta potential of TBP-NPs and SCP-NPs. An in vitro binding assay that involved exposure of TBP-NPs and SCP-NPs to TRAP in serial dilutions was used to determine the binding affinity of TBP-NPs and establish their efficacy for in vivo applications. Specifically, after exposure of TBP-NPs to TRAP and incubation for 2 hours, fluorescamine, a spiro compound that reacts with primary amines to form highly fluorescent compounds, was added to the reaction. The protein-dye complex was excited with UV LED (365 nm) and emitted at 470 nm on a Cytation 5 Imaging Multimode Reader. The binding affinity (Kd) and maximum binding (Bmax) were then calculated to determine the efficacy of the synthesized TBP-NPs (FIG. 1 C-D).

[3] = Dynamic light scattering characterization of nanoparticle size; format: physicochemical; conditions: nanoparticles, DLS
Excerpt: as §1

[4] = target: T1, TRAP; conditions: known from the art; cited from earlier work
[5] = target: tartrate resistant acid phosphatase (TRAP); test: in vitro binding assay, NPs exposed to TRAP in serial dilutions, 2 h incubation, fluorescamine fluorescence readout

Row | Molecule | Diameter (nm) [3] | Dispersity for Size [3] | further results
1 | O=C(Nc1ccc([N+](=O)[O-])cc1Cl)c1cc(Cl)ccc1O [Niclosamide] | – | – | effect on S100a4 gene and protein expression [1]: inhibit the S100a4 gene and protein expression
2 | ARO-TBP-Alloc: TBP-NPs from anhydride ring-opening conjugation of Alloc-protected-lysine TBP to PSMA-b-PS polymer, then self-assembly (TPLSYLKGLVTVG-OH; not fully specified (residue 7, N-terminus); printed as TPLSYLKAllocGLVTVG; also: ['conjugated to PSMA-b-PS polymer by anhydride ring-opening']) | 32 ± 2 nm | 0.1 ± 0.1 | Kd [2]: 186 µM
3 | CDI-TBP-Alloc: TBP-NPs made by carbodiimide coupling of Alloc-protected-lysine TBP to pre-formed PSMA-b-PS nanoparticles (TPLSYLK(Alloc)GLVTVG-OH; also: coupled to PSMA-b-PS nanoparticle by amide bond (carbodiimide), site not given here) | 33 ± 3 nm | 0.2 ± 0.1 | Kd [2]: 468 µM
4 | CDI-TBP: TBP-NPs made by carbodiimide coupling of free (unprotected) TBP to PSMA-b-PS nanoparticles (TPLSYLKGLVTVG; not fully specified; also: ['coupled to PSMA-b-PS nanoparticles by carbodiimide amide bond']) | 66 ± 3 nm | 0.4 ± 0.1 | –
5 | TPLSYLKGLVTVG [TBP, TPLSYLKGLVTVG (SEQ ID NO: 1), peptide known to home to TRAP] | – | – | affinity for TRAP [4]: sub-nanomolar affinity
6 | B1 | – | – | Kd [5]: 468 µM
7 | B2 | – | – | Kd [5]: 186 µM
